Reference: IntAct's records for PubMed 19524571

B1: Cyclin-dependent kinase 14 (Homo sapiens), O94921 (parent)
chain: MCDLIEPQPAEKIGKMKKLRRTLSESFSRIALKKDDTTFDEICVTKMSTRNCQGMDSVIKPLDTIPEDKKVRVQRTQSTFDPFEKPANQVKRVHSENNACINFKTSSTGKESPKVRRHSSPSSPTSPKFGKADSYEKLEKLGEGSYATVYKGKSKVNGKLVALKVIRLQEEEGTPFTAIREASLLKGLKHANIVLLHDIIHTKETLTLVFEYVHTDLCQYMDKHPGGLHPDNVKLFLFQLLRGLSYIHQRYILHRDLKPQNLLISDTGELKLADFGLARAKSVPSHTYSNEVVTLWYRPPDVLLGSTEYSTCLDMWGVGCIFVEMIQGVAAFPGMKDIQDQLERIFLVLGTPNEDTWPGVHSLPHFKPERFTLYSSKNLRQAWNKLSYVNHAEDLASKLLQCSPKNRLSAQAALSHEYFSDLPPRLWELTDMSSIFTVPNVRLQPEAGESMRAFGKNNSYGKSLSNSKH

Variants of: B1
Conditions: with ccny_human CCNY

Variant | effect of a mutation on the interaction
K164R | decreasing interaction strength
